Measurements published in patent US20180079804A1.

T1: Tau(pS422) fragment SEQ ID NO: 03 (human)
T1 sequence (peptide, phosphoserine at position 7 (position 422 of SEQ ID NO, 01)): SIDMVDXPQLATLAD


Tests used:
[1] = target: T1, Tau(pS422) fragment SEQ ID NO: 03 (human); assay: ELISA
[2] = target: T1, Tau(pS422) fragment SEQ ID NO: 03 (human); assay: SPR capture assay (Example 10), 25 C

EC50 [1] | Kd [2] | koff [2] | kon [2] | Binder
0.04 µg/mL | 1.96 nM | 0.000265 s⁻¹ | 135000 M⁻¹ s⁻¹ | VH00/VL00 (antibody, V domains shown) VH: QSVEESGGRLVTPGTPLTLTCTVSGFSLSSNAINWVRQAPGKGLEWIGYIAVSGNTYYASWAKGRFTISKASTTVDLKMTSPTAEDTGTYFCGKSNIWGPGTLVTVSL VL: AQVLTQTTSPVSAAVGSTVTISCQSSQSVRTNKLAWFQQKPGQPPKRLIYSASTLDFGVPSRFSASGSGTQFTLTISDVQCDDAATYYCLGYFDCSIADCVAFGGGTEVVVK
0.0403 µg/mL | 2.61 nM | 0.000628 s⁻¹ | 240000 M⁻¹ s⁻¹ | VH76A6/VL145B12 (antibody, V domains shown) VH: EVQVLESGGGLVQPGGSLRLSCAVSGFSLSNSAINWVRQAPGKGLEWVGYIAVSGNTYYASWAKGRFTISRDNSKNTVYLQMNSLRAEDTAVYYCGKSNIWGQGTLVTVSS VL: AQVMTQSPSSLSASVGDRVTITCRSSQSVRSNKLAWFQQKPGQPPKRLIYAASNLDFGVPSRFSGSGSGTEFTLTISSLQPEDFATYYCLGYFDSSADIVAFGGGTKVEIK
